Test results published in patent US7704695B2, “Screening of compounds for BGT1 transporter activity” (XenoPort, Inc., priority 2005, dated 2010).

Substrate: NCCCC(=O)O
Assay: hBGT1 direct uptake assay (LC-MS-MS)
Type: cell-based, human
Conditions: other: HEK-TREx-hBGT1 cells induced to express hBGT1
Procedure: A modified direct uptake assay was developed to determine the ability of test compounds to be transported into HEK-TREx cells induced to over-express hBGT1. Four concentrations (bracketing the affinity as measured by competition assays) per compound were routinely tested. Non-specific uptake was determined by measuring the uptake into cells not induced to express the transporter (“no tet”).
Typically, four concentrations bracketing the IC50 were tested. The highest test concentration for each compound was made in an Eppendorf tube and diluted into HBSS. The samples were robustly vortexed and centrifuged for 10 minutes at 13,200 rpm to spin down any precipitate. […] Three additional 2-fold dilutions were made in the subsequent rows (B-D or F-G) in HBSS.
An internal standard of 50 μM propranolol in 50:50 ethanol:water was also prepared. To prepare standard curves, several concentrations of the test compounds were diluted into HEK cell extract (prepared from tet-treated, mock-incubated, and extracted cells as described below) with a final internal standard concentration of 5 μM. Standards of 10, 5, 1, 0.5, 0.1, 0.05, 0.01, and 0.005 μM were routinely run for each test compound. […]

B1: hBGT1 (Homo sapiens) (protein)
chain: MDGKVAVQECGPPAVSWVPEEGEKLDQEDEDQVKDRGQWTNKMEFVLSVAGEIIGLGNVWRFPYLCYKNGGGAFFIPYFIFFFVCGIPVFFLEVALGQYTSQGSVTAWRKICPLFQGIGLASVVIESYLNVYYIIILAWALFYLFSSFTSELPWTTCNNFWNTEHCTDFLNHSGAGTVTPFENFTSPVMEFWERRVLGITSGIHDLGSLRWELALCLLLAWVICYFCIWKGVKSTGKVVYFTATFPYLMLVILLIRGVTLPGAYQGIIYYLKPDLFRLKDPQVWMDAGTQIFFSFAICQGCLTALGSYNKYHNNCYKDCIALCFLNSATSFVAGFVVFSILGFMSQEQGVPISEVAESGPGLAFIAFPKAVTMMPLSQLWSCLFFIMLIFLGLDSQFVCVECLVTASIDMFPRQLRKSGRRELLILTIAVMCYLIGLFLVTEGGMYIFQLFDYYASSGICLLFLSLFEVVCISWVYGADRFYDNIEDMIGYRPWPLVKISWLFLTPGLCLATFLFSLSKYTPLKYNNVYVYPPWGYSIGWFLALSSMVCVPLFVVITLLKTRGPFRKRLRQLITPDSSLPQPKQHPCLDGSAGRNFGPSPTREGLIAGEKETHL
notes: expressed in transfected cells; host or cells: HEK-TREx cells (HEK-TREx-BGT1 inducible line), induced with tetracycline/doxycycline and butyrate
- Km: 27 µM
